According to US20120315271A1 (Pfizer, published 2012):

Target: T1, human nerve growth factor (human, UniProt P01138 122-241, limits assumed)
T1 construct: also called human NGF; hNGF
Assay: binding affinity measured with the Fab fragment; method not stated at this place (general BIAcore SPR protocol in paragraph 87); Fab, not IgG
Experimental: To obtain monofunctional Fab fragments, an antibody (for example, IgG) can be cleaved with papain or expressed recombinantly. […] The concentrations of the Fab proteins are determined by ELISA and/or SDS-PAGE electrophoresis using a Fab of known concentration (as determined by amino acid analysis) as a standard. […] Equilibrium dissociation constant (KD) values are calculated as koff/kₒₙ.

T1 sequence (P01138 122-241 limits assumed): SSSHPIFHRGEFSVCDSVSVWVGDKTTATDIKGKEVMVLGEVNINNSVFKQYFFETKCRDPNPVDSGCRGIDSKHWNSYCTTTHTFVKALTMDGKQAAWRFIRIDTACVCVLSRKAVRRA

B1: Fab fragment of humanized anti-NGF antibody E3 (Fab, V domains shown)
VH: QVQLQESGPGLVKPSETLSLTCTVSGFSLIGYDLNWIRQPPGKGLEWIGIIWGDGTTDYNSAVKSRVTISKDTSKNQFSLKLSSVTAADTAVYYCARGGYWYATSYYFDYWGQGTLVTVS
VL: DIQMTQSPSSLSASVGDRVTITCRASQSISNNLNWYQQKPGKAPKLLIYYTSRFHSGVPSRFSGSGSGTDFTFTISSLQPEDIATYYCQQEHTLPYTFGQGTKLEIK
notes: Full antibody E3 has a human IgG2a heavy chain constant region with A330P331 to S330S331 and a human kappa light chain constant region
- Kd: ~0.07 nM
